Assay [1] addresses T1, recombinant human PCSK9 (proprotein convertase subtilisin/kexin type 9) (human, UniProt Q8NBP7).
T1 construct: also called recombinant PCSK9; source: recombinant
Kind of assay: SPR; sensorgrams of recombinant human PCSK9 binding to Ab#2 and to Ab#2_GLP1; typical of 8 independent experiments; set-up and conditions not told in the main text. The conditions noted are these: both partners purified. (In SPR one partner is held on a chip, and binding of the other changes the refractive index at the surface.)

The target in assay [2] is human GLP-1 receptor on stably transfected CHO cells (human) (UniProt P43220).
Sequence of human GLP-1 receptor on stably transfected CHO cells (human) (P43220 24-463): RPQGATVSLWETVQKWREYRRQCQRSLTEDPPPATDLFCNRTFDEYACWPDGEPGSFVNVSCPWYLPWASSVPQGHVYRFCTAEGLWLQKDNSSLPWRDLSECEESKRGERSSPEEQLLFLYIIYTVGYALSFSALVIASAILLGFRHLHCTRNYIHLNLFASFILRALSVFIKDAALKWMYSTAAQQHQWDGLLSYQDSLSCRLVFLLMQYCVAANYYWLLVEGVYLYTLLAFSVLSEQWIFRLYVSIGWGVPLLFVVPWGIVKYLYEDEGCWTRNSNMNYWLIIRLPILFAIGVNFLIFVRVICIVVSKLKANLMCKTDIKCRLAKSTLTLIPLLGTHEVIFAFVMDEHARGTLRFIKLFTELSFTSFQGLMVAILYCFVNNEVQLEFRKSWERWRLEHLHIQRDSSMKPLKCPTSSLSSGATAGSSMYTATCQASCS

B1: Ab#2_GLP1: DPP-4-resistant GLP-1 analogue peptide fused by the [G4S]3A linker to the light chain of anti-PCSK9 Ab#2 (antibody, V domains shown)
VH: QVQLVQSGAEVKKPGASVKVSCKASGYTFTSYYMHWVRQAPGQGLEWMGEIHPSGGRTNYNEKFKSRVTMTRDTSTSTVYMELSSLRSEDTAVYYCARERPLYASDLWGQGTTVTVSS
VL: DIQMTQSPSSLSASVGDRVTITCKASQDVHTAVAWYQQKPGKAPKLLIYHASYRYTGVPSRFSGSGSGTDFTFTISSLQPEDIATYYCQQRYSLWRTFGQGTKLEIK
notes: also called non-glycosylated Ab#2_GLP1 fusion; source: CHO cells, transient co-transfection, purified (Protein A MabSelectSure)
Regarding B1, the binding result in assay [1] is “binds”. This molecule gave a potency in the cAMP accumulation assay, CHO cells expressing human GLP-1R in assay [2] of 0.087 nM.

B2: anti-PCSK9 antibody Ab#2 (antibody, V domains shown)
VH: B1 VH
VL: B1 VL
notes: also called anti-PCSK9 Ab#2; source: CHO cells, transient co-transfection, purified (Protein A MabSelectSure)
In the case of B2, the binding result in assay [1] was “binds”.

The values are drawn from publication PMC6277417 (Scientific Reports, 2018).
